Biological target: G. gallus FANCD2 (G. gallus, UniProt Q68Y81 1-1439)
Experiment: cross-linking

Sequence of G. gallus FANCD2 (Q68Y81 whole entry): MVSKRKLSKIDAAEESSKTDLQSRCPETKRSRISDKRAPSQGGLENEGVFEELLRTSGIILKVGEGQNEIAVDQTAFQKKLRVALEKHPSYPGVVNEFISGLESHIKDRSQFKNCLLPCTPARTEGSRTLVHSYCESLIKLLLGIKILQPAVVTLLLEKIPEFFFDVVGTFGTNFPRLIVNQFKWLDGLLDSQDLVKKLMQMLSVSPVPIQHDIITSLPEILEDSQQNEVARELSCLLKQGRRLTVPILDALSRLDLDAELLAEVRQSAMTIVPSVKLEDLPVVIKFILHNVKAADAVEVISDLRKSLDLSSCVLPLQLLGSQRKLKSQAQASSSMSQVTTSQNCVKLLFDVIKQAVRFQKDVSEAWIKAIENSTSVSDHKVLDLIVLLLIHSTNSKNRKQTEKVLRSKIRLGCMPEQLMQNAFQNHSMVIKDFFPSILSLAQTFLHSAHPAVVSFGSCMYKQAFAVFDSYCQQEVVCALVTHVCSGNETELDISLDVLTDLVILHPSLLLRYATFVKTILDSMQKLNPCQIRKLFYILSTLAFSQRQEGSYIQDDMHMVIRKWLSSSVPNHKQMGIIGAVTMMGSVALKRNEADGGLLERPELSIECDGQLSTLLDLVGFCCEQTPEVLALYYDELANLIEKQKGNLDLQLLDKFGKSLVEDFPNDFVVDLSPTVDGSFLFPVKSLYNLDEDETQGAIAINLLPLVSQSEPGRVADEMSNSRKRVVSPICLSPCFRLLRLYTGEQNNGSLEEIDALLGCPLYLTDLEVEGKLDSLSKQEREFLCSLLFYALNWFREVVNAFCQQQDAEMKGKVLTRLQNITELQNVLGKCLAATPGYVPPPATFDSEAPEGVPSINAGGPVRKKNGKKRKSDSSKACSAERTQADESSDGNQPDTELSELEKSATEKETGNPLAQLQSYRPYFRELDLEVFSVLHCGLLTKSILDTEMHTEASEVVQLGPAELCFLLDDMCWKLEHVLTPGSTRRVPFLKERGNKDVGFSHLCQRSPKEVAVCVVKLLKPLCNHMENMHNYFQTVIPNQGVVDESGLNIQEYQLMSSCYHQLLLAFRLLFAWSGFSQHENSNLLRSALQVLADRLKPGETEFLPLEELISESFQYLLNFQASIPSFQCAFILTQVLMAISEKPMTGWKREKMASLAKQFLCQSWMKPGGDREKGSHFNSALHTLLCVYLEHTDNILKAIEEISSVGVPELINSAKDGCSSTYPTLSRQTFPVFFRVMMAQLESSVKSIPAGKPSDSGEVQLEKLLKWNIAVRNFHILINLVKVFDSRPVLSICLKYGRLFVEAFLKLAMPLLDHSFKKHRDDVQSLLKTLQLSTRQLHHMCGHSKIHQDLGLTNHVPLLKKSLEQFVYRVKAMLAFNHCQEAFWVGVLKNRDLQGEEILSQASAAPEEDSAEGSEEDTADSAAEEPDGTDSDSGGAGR

| binding result | Binder |
| --- | --- |
| binds | G. gallus FANCI, wild type (natural protein, UniProt B0I564 1-1338, looked up) MAQRILQLAAEGSPERLQEALQGLTEGELGDMVTRQALRGRETAALLKGIFKGSPCSQQSGVLRRLQVYKHCVSLVESGDLHVGKVSEIIGLLMLEARQLPGHALAELATLFVEVIKRGSLSNGKSLELFSTVLTALSNSKESLAYGKGELNGEEFKKQLINTLCSSKWDPQCVIHLANMFRDIPLSGEELQFVVEKVLRMFSKLDLQEIPPLVYQLLLLSAKGSKKTVLEGIISFFNQLDKRQKEEQRVPQSADLEVATVPLDQLRHVEGTVILHIVSAINLDQDIGEELIKHLKTEQQKDPGKALCPFSVSLLLSTAVKHRLQEQIFDFLKTSITRSCKDLQILQASKFLQDLCPQQYDVTAVILEVVKNSAFGWDHVTQGLVDLGFSLMESYEPKKSFGGKAAETNLGLSKMPAQQACKLGASILLETFKVHEPIRSDILEQVLNRVLTKAASPVSHFIDLLSNIVVSAPLVLQNSSSRVTETFDNLSFLPIDTVQGLLRAVQPLLKVSMSVRDSLILVLQKAIFSRQLDARKAAVAGFLLLLRNFKILGSLTSSQCSQAIGATQVQADVHACYNSAANEAFCLEILGSLRRCLSQQADVRLMLYEGFYDVLRRNSQLASSIMETLLSQIKQYYLPQQDLLPPLKLEGCIMAQGDQIFLQEPLAHLLCCIQHCLAWYKSTVHLCKGAEDEEEEEDVGFEQNFEEMLESVTRRMIKSELEDFELDKSADFSPSSGVGVKNNIYAIQVMGICEVLIEYNFKIGNFSKNKFEDVLGLFTCYNKLSEILKEKAGKNKSTLGNRIARSFLSMGFVSTLLTALFRDNAQSHEESLAVLRSSTEFMRYAVSVALQKVQQLEEMGQTDGPDGQNPEKMFQNLCKITRVLLWRYTSIPTAVEESGKKKGKSISLLCLEGLLRIFNTMQQLYAARIPQFLQALDITDGDAEEADINVTEKAAFQIRQFQRSLVNQLSSAEDDFNSKETQLLITILSTLSKLLDPGSQQFLQFLTWTVKICKENALEDLSCCKGLLTLLFSLHVLYKSPVSLLRELAQDIHACLGDIDQDVEIESRSHFAIVNVKTAAPTVCLLVLGQADKVLEEVDWLIKRLTILGSDTSEDSTQASNQTQALEKGVILQLGTLLTVFHELVQTALPAGSCVDSLLRSLSKTYAILTSLIKHYIQACRSTSNTVPGRLEKLVKLSGSHLTPQCYSFITYVQNIHSESLSFAEEKKKKKKEDETAVVSTVMAKVLRDTKPIPNLIFAIEQYEKFLIHLSKKSKVNLMQYMKLSTSRDFRINASMLDSVLQEQNTEDAENEPDNNQSGTAEQPDENQEPQKKRRRKK |
| binds | G. gallus FANCI, phosphomimetic S558D, S561D, T567D (natural protein, UniProt B0I564 1-1338, looked up) MAQRILQLAAEGSPERLQEALQGLTEGELGDMVTRQALRGRETAALLKGIFKGSPCSQQSGVLRRLQVYKHCVSLVESGDLHVGKVSEIIGLLMLEARQLPGHALAELATLFVEVIKRGSLSNGKSLELFSTVLTALSNSKESLAYGKGELNGEEFKKQLINTLCSSKWDPQCVIHLANMFRDIPLSGEELQFVVEKVLRMFSKLDLQEIPPLVYQLLLLSAKGSKKTVLEGIISFFNQLDKRQKEEQRVPQSADLEVATVPLDQLRHVEGTVILHIVSAINLDQDIGEELIKHLKTEQQKDPGKALCPFSVSLLLSTAVKHRLQEQIFDFLKTSITRSCKDLQILQASKFLQDLCPQQYDVTAVILEVVKNSAFGWDHVTQGLVDLGFSLMESYEPKKSFGGKAAETNLGLSKMPAQQACKLGASILLETFKVHEPIRSDILEQVLNRVLTKAASPVSHFIDLLSNIVVSAPLVLQNSSSRVTETFDNLSFLPIDTVQGLLRAVQPLLKVSMSVRDSLILVLQKAIFSRQLDARKAAVAGFLLLLRNFKILGSLTSDQCDQAIGADQVQADVHACYNSAANEAFCLEILGSLRRCLSQQADVRLMLYEGFYDVLRRNSQLASSIMETLLSQIKQYYLPQQDLLPPLKLEGCIMAQGDQIFLQEPLAHLLCCIQHCLAWYKSTVHLCKGAEDEEEEEDVGFEQNFEEMLESVTRRMIKSELEDFELDKSADFSPSSGVGVKNNIYAIQVMGICEVLIEYNFKIGNFSKNKFEDVLGLFTCYNKLSEILKEKAGKNKSTLGNRIARSFLSMGFVSTLLTALFRDNAQSHEESLAVLRSSTEFMRYAVSVALQKVQQLEEMGQTDGPDGQNPEKMFQNLCKITRVLLWRYTSIPTAVEESGKKKGKSISLLCLEGLLRIFNTMQQLYAARIPQFLQALDITDGDAEEADINVTEKAAFQIRQFQRSLVNQLSSAEDDFNSKETQLLITILSTLSKLLDPGSQQFLQFLTWTVKICKENALEDLSCCKGLLTLLFSLHVLYKSPVSLLRELAQDIHACLGDIDQDVEIESRSHFAIVNVKTAAPTVCLLVLGQADKVLEEVDWLIKRLTILGSDTSEDSTQASNQTQALEKGVILQLGTLLTVFHELVQTALPAGSCVDSLLRSLSKTYAILTSLIKHYIQACRSTSNTVPGRLEKLVKLSGSHLTPQCYSFITYVQNIHSESLSFAEEKKKKKKEDETAVVSTVMAKVLRDTKPIPNLIFAIEQYEKFLIHLSKKSKVNLMQYMKLSTSRDFRINASMLDSVLQEQNTEDAENEPDNNQSGTAEQPDENQEPQKKRRRKK |

Source: article doi:10.1101/2024.09.02.610668 (bioRxiv, 2024)
